Source: PMC8016844

Legend:
[1] = target: Grb2 (Homo sapiens) (UniProt P62993); conditions: cited from earlier work
[2] = target: isolated CSH3 domain of Grb2 (Grb2_(CSH3)); assay: MST; target protein labelled with Atto 488 NHS ester, 100 nM; unlabelled ligand serially diluted; Monolith NT.115; 25 °C; 20 mM HEPES pH 7.5, 150 mM NaCl, 0.5 mM TCEP, 0.005% Tween 20
[3] = target: Shp2 N-terminal SH2 domain (Shp2_(NSH2)) (UniProt Q06124); assay: as above

Substance	Kd [2]	also measured
Grb2 (from UniProt P62993)	–	Kd [1]: 0.8 µM
Shp2 PTP domain peptide TKCNNS322KPKK325SYIATQ	173 µM	–
Shp2 PTP domain peptide VERGKS366KCVK369YWPDEY	122 µM	–
Shp2 PTP domain peptide WPDHGV429PSDP432GGVLDF	18.1 µM	–
isolated CSH3 domain of Grb2 (Grb2_(CSH3)) (domain or fragment)	–	Kd [3]: 207 µM
